Reference: the domain aggregation screens of Martell et al. (2025)

Assay: soluble fraction after stress (log2 fold change); higher = more stays soluble; pooled small domains, quantitative proteomics
Conditions: stress: pH 4
How it was run: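 Pooled custom libraries of small protein domains were subjected to pH 4 and measured by high-throughput quantitative proteomics. The log2 fold change in soluble amount per domain is reported, higher values meaning more remained soluble. This is used as a measure of aggregation propensity.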

“HMSLDLERAVALLSLPRPVGNHPEDGELVEAGIGRYGPYVKHGSKYANLPDADEVFTIGMNRAVEVLAAK” and “HMSLDTASDKELLGLIVSEPIATRVLDAFRTLDATLFRTTPAELAAAAGVSSEHAQKIKAVAEIAARMLKP” are within 0.2 log units of each other in “soluble fraction (log2)” value: -0.261 for the first, -0.363 for the second.

Going from “HMSLEDYVIIKNKTVKVYETEFDGAPVVTSSSVGQKLILVEYNDNFAKILYRAKDGLDYVGYIKRKDVYVR” to “HMSLLLTPREASVWASEYLGKKVTSNNIIYLLNYGKIANHSTDLKENLIDKNELKIYYDSTIKSQKH”, the “soluble fraction (log2)” value rises from -1.04 to 0.00309.

Compared with “HMSLLQDRQRHEALAALGYYRGSVSAAWGAASVEALKAAQAALGVEVDGKWGPKTEDVIQAALGT”, “HMSLLQTRQRHEALAALGFFKGDVAAEWSAASTEALRAAQASLGIRVDGKWGPQTEDAIGKALAERQG” is higher in “soluble fraction (log2)” value: -0.453 for the first, 0.108 for the second.

“HMSLLTIDELSQATGVSVRTLRYYVSSGVLDKPTGETRNARYGTHHLDQVRNIKKLQEEGLTLNRILEIKK” and “HMSLNHDIWVQELKEKRSGYGISQSRLAIAAGMTRQYLSDIETGKVLPSAERKAAITEALERFNPD” are within 0.2 log units of each other in “soluble fraction (log2)” value: -0.405 for the first, -0.213 for the second.

First: HMSLNNAHNTIFPRIIELMEMKQLENVLLIGGGIIPRKDIESLESSGVTKLYGPGTPVKETIEFITNWVK
Second: HMSLPKVLVPTDITVSQLAKYLEVDAIAIVKKLFGLGVVASLNQRLENEQMQLLGQEFGKDIIFTEN
The “soluble fraction (log2)” value of the first is lower: -0.533 for the first, -0.318 for the second.

First: HMSLPTSDWKRALSLFDEALSLPPDARDAWLAHTIAREPAVSPLLQKLLGAHRRVETNDILATLPR
Second: HMSLQNTMANFAGGVLVLFLKPFKAGDYIVTKDGEGTVASIGLVYTTLLTIENKRIVIPNSSISNSPITN
The “soluble fraction (log2)” value of the first is higher: -0.274 for the first, -0.673 for the second.

“HMSLRGEKTYDEAHQKLIKSAVELFKNPLVSPEKITVSQIAKHAGVSVATAYNHFPENKLDIYGSIF” and “HMSLRVIEIFGTPQQMSARISLMDGSVTDVKVGQSIPGTSYKVASITGNGVWIQNGTAVSYTHL” are within 0.2 log units of each other in “soluble fraction (log2)” value: -0.0613 for the first, 0.00817 for the second.

First: HMSLSDADVERLLEVAIDIESLEEREGLYYQANESEPYSGWGKLMYDSGQVERLVPYKDGRWEGLWTIW
Second: HMSLSISSLVFFRKNAGLTQADIATAMSITQSAVARLEKRLLSDSDVTLKTLERYAEAVGIRMHVDFEP
The “soluble fraction (log2)” value of the first is lower: -1.18 for the first, -0.0175 for the second.

Going from “HMSLSKEEFETISKQVLELAGAGPIPVKELLQKMERTSKEKAWKVIEFLQAEDKIVPDATGRIQL” to “HMSLSKQETEFLTTFSASGKRVFTYQQATDYWQSKVAATNVLGRLVRKGWLQRLERGLYMIIPLEAGPERF”, the “soluble fraction (log2)” value falls from -0.457 to -0.807.

Going from “HMSLSPAATRSRGYPSVLLTMKAPERLVSAAGPDRRAYLVGTDPLVIELPGVKGLYKVDPDQIVFE” to “HMSLTEEQVDSGLKEIRLALLEADVALPVVKNFITNIKPKAIGQEIIRSTSPGQMIVKIVYDELVSIL”, the “soluble fraction (log2)” value falls from -0.0637 to -0.85.

First: HMSLTEESAKSLIGLTENEAVKVAAERGWTVRVAMRDGEAFMLTQDYSENRVNLTVMKTLVTAVTI
Second: HMSLTMPKLIGMHLFQAERTLNYYGFQYKVEGPDSASVVIDQYPKEGVTVDPHYPITLKIGPSA
The “soluble fraction (log2)” value of the first is lower: -0.0567 for the first, 0.206 for the second.

Compared with “HMSLYGGYEIDIIKEEVVDAGIKLLRRRVIVADQRGISVYEGKPTFASDDQVLIKEGQYQIDKLG”, “HMSMHVHTPNPDFKPSNTNALQEGQLVEHPKFGFGKVQKIETEGLNKKASIQFEHFGEKTLLLSFAKLRII” is higher in “soluble fraction (log2)” value: -1.46 for the first, -0.167 for the second.

Going from “HMSMLGTEQRVLVLGPARKGEGFLMARTDNNRIVNFEGPLSLVDTMVRVKVTDVYPHSLGGQLL” to “HMSMPDERMLTSWMMARVKAAGKTMTRDAWNEFFERSNDSMDHMDMEMEKLLSYVYDKDGITLEDVEA”, the “soluble fraction (log2)” value falls from -0.0321 to -0.381.

Going from “HMSMQIILLDKVVNLGGLGDVVKVKDGYARNYLIPQGKAKRANTANLAEFEARRVELERLAAEQLAQAQA” to “HMSMRIDTNTLNYYVQNAQISLSVLRTKINNLDQFLSGEKQPTFNQLSEIAKKINVPTGLLLLNKS”, the “soluble fraction (log2)” value falls from -0.478 to -0.698.

Compared with “HMSMSKISNLLEIMMIIQYKGLTTASELAQSLGVDKKTVYRYINSLSKANIPIYTKKGRYGGFYIDKNF”, “HMSMSTVGERIKKKRKNLNFTQQELAAKLNISAQAVSKWENGVALPDLGLMPKLAQVLESTVDGLLGYQGA” is lower in “soluble fraction (log2)” value: 0.138 for the first, -0.235 for the second.

Going from “HMSMTLSVLDDVRGLSESRRKQLFHSFGSIKKLREQSKETLMSIPYLPEKVALELYDKLHEE” to “HMSMVGSVNKQGRPFALLRVDNLLYQVKVGDYLGQNYGRITQIDETQIALREIVQDAAGEWIERPGVLQL”, the “soluble fraction (log2)” value falls from 0.272 to -0.256.

First: HMSNATELVYDDGRKLLISYETLVGGYHPDLGWIRTAKTYSISTDKHIRNYFNNVTNPRVVGEDILETLKI
Second: HMSNDRSYLARLQDYYAEHRALPSYASIGALLGLRSKSSVAALVARLKLAGFVESTPDRRLAPTRRFF
The “soluble fraction (log2)” value of the first is lower: -0.237 for the first, 0.344 for the second.

First: HMSNEWIEISAKTVDDAINEGLIRLGTTTDKMDVEVLEKESAGFLGFIGKHDAKIRVRFKEV
Second: HMSNGYVTAKTTVNVRKSASESGERLGVIYQGDKLELVMNQADGWTKVKYKGQTAYVKSEFM
The “soluble fraction (log2)” value of the first is lower: -0.608 for the first, 0.161 for the second.

Going from “HMSNHYETLGVPRDASQEDIKRAYRRLARKLHPDVAGPGKAEEFKAVNEAYAVLSDEESRRMYDLGGDDAL” to “HMSNIQLVENLYRLRKAHHYTQQEISDLLNISRQAYSNYETSKRTPDLDSLMRLADIYGVSLDQLVNHP”, the “soluble fraction (log2)” value falls from 0.145 to -0.347.

First: HMSNLENSLNESLSLLKSNKYNEALEILKKIEIEDSRVFFLLGTIYSVMKNINLGEEFLIKASK
Second: HMSNLGLQIVRTLTDAGKGVVFITHKLKEALTIADRINVLRRGKVVGDADPKTASESQIAEMMVGRPVQL
The “soluble fraction (log2)” value of the first is lower: -1.32 for the first, 0.0653 for the second.

First: HMSNMWVWSKLSGIQWMDAWEDRFHGNPNTVITRLKTNKTVRVEVYTETEQEALDIKKLFGGSIRKLV
Second: HMSNRFIQFRQRAIDWLNSDRDFNAGILLLEESGFKPGVVAKLKRHGVNGPEAKKRLKFLINELVKAWA
The “soluble fraction (log2)” value of the first is higher: 0.103 for the first, -0.374 for the second.

First: HMSNVKVYPNPTSGKLTIDAENYKGVEVYDTSGRLIVKSELRTIDLEEQSKGLYLLKVNANGTTQEFKVFK
Second: HMSNYLKSVEVFDPITNKWSYVSAMKVRRGYVAVVATMDRLYAIGGYDGENYLSTVEMYNPDTN
The “soluble fraction (log2)” value of the first is lower: -0.977 for the first, 0.0787 for the second.

“HMSPAVSLITGKLGAETYYKQGLKKAKEKDYEGALDDLIKAYEFFPDKKIKTQVDKLASFLGKPPIL” and “HMSPIKAGDLVKITGTKYYRGQTIPSWVKAKNWFVHSVSGDRAVINKSEDGKNAIMSPVKVSNLALVT” are within 0.2 log units of each other in “soluble fraction (log2)” value: 0.0374 for the first, 0.0492 for the second.

Going from “HMSPILTPDQATKAYGKDGVLYIHSNKERTIYIYDVTGRTVRILEAVEGENQINGLEKGIYFLEGQKVAV” to “HMSPLQLGNYNTLRITRFTDHGAYLDGGDVGEILMPKTYVLPEMKPGDEVRVFVYLDQEERLVGTTET”, the “soluble fraction (log2)” value falls from -0.378 to -1.44.

“HMSPPVIQQGQDVRLIYKGTGFAVSNEGKALNTAADGQVARARTGGGQTVSGIARPGGIIEIT” and “HMSPQPPNQEAVRTRILDQAAHLFLTIGYAETTVRRIAGAVGIKAASLYHHFGSKDEVFESILIR” are within 0.2 log units of each other in “soluble fraction (log2)” value: 0.103 for the first, 0.21 for the second.

Compared with “HMSPRADRSVNLDVGETVQIDDWGADGTAQIRYRGAPWTAVLRPGHTPHPGPHRVIELVGSRLLVEP”, “HMSPRAIYVTTSDLNMRMQPSPNAYKRGVAPRGTELLVVEWGDDWSKVIFEGDTAYAASRYLSYVKDEP” is higher in “soluble fraction (log2)” value: -0.746 for the first, -0.419 for the second.

Going from “HMSQDEVVADMKADLGPDADNIIRSNIQWADGLVRKGILTESEREELDVMGGTPEAQRILVKLRTMQG” to “HMSQDTLIENGKVFLIHKVVAGQTLYGLSKAYNITIEDIIKYNPQAENGIKIGEDIKIFLKEE”, the “soluble fraction (log2)” value falls from -0.539 to -1.1.

First: HMSQEHTVPDYKDMEATVVYADLTQKGLNYEIAQETSPTIKEGNVTQTIPGMNEKVVSGDTITVFVSTGTG
Second: HMSQIDLQIGHKIKSKRRKLGISQADMAKKLYISPSYLNLIESGKRKINVDLLLKLSNELGIEMSDIS
The “soluble fraction (log2)” value of the first is lower: -0.907 for the first, 0.33 for the second.

Going from “HMSQIILSARSGHAALRHRLGELGYTFADKEFDDIYERFLEVADQKKEVYDEDLESIVQERQRD” to “HMSQITEADYIPNTDKTWGELMEETGESLPNLVERYNNEMTKSNGKEQPQSIIQRIIEDYQMVS”, the “soluble fraction (log2)” value rises from -0.559 to -0.0864.

First: HMSQLSDEQELRDIARGIIEGNPNEAEKYRAGRTGLLGFFVGKLMAETEGKANPRLASRILKELLE
Second: HMSQLSQIVDAFGGLRPFARALNKPPSTVQYWIEKGGIPASVVSPIMKLSEEKGLGLSRDQVSAAVS
The “soluble fraction (log2)” value of the first is lower: -0.441 for the first, 0.0542 for the second.

Compared with “HMSQLTVGTVVTGNASLQTQGLKLPSFASGSRPASPNIGQMIWNSSDAKAQIWNGSEWDDVG”, “HMSQNVSFTVDSGQAGLRLDVFLSQADPAFSRSQIKYAIEEGDVTVNGKEPKVSQHLKDGDIVELHLE” is lower in “soluble fraction (log2)” value: at least 0.43 for the first, 0.114 for the second.

First: HMSQQEAQLNSLVKIYESMKPKDAARIFDTLDMDVLLDVVMRMKEARSAAVLAEMTPDRAKEVTLQLAD
Second: HMSQTDQALRHLIREAWATLPQRQQQAVELAYYEGLPDTEIAARLNQPVEEVKTSIVLGMAHLREALHSY
The “soluble fraction (log2)” value of the first is lower: -1.8 for the first, -0.198 for the second.

First: HMSQTDTDAKDARQKILALLSDGEWHQKTELLKIDAPKEAVSNAIRYLVLEELISIDHAKVRA
Second: HMSQTVKYVNTTSGLNMRTGPATSYAKITTIAYGQSVNVLSTSNGWSKINYSGSTGYVSSQYLQSKKPS
The “soluble fraction (log2)” value of the first is lower: -0.465 for the first, 0.183 for the second.

“HMSQVHYAVLFKNASAAEATEIVTYARETLGVQDIKINANGDILVPEDKVEEMRVSMSIAGFPK” and “HMSQVSTKYINVSSAYVRSKPSKDGEIVTSLIKNTDVTVTGENGDWYKIKFNNYEGYIFKELLSDSKLEE” are within 0.2 log units of each other in “soluble fraction (log2)” value: -0.349 for the first, -0.35 for the second.

For “HMSRAMFEMHADWQPTDSIRGLLGRAGLPTDIAKLDQSRIGDFVNHWFGKPDRNTADSWNGLLVGWLKRTQ”, the “soluble fraction (log2)” value was -0.787.
